Assay [1] addresses Dorsal, truncated (RHD, NLS and 20 additional C-terminal residues), StrepTagII-tagged (Drosophila melanogaster). In words: SEC; gel filtration of each purified recombinant protein, compared with molecular mass standards. On the technique in general: SEC sorts molecules by how far they enter the pores of the column.
Assay [2] addresses T1, Ank-H4 of Microplitis demolitor bracovirus, full length, N-terminal His tag (Microplitis demolitor bracovirus (MdBV)). Kind of assay: SPR; Biacore 3000, room temperature; IkB or Ank immobilised on CM5 by amine coupling (about 5500 RU); Rel homodimer as analyte, kinetic titration, five doubling injections (typically 160 nM to 2.56 uM), 60 or 90 s, 30 uL/min; 10 mM HEPES pH 7.4, 150 mM NaCl, 3.4 mM EDTA, 0.005% P20; 1:1 Langmuir …. (SPR reads the build-up and loss of mass on a sensor chip optically.)

The target of assay [3] is Ank-N5 of Microplitis demolitor bracovirus, full length, N-terminal His tag (Microplitis demolitor bracovirus (MdBV)). Described as above.
For assay [4], the target named is T2, Rel-49, the C-terminal IkB domain of Relish, N-terminal StrepTagII and C-terminal His tag (Drosophila melanogaster).
T2 sequence (Q94527 whole entry, looked up): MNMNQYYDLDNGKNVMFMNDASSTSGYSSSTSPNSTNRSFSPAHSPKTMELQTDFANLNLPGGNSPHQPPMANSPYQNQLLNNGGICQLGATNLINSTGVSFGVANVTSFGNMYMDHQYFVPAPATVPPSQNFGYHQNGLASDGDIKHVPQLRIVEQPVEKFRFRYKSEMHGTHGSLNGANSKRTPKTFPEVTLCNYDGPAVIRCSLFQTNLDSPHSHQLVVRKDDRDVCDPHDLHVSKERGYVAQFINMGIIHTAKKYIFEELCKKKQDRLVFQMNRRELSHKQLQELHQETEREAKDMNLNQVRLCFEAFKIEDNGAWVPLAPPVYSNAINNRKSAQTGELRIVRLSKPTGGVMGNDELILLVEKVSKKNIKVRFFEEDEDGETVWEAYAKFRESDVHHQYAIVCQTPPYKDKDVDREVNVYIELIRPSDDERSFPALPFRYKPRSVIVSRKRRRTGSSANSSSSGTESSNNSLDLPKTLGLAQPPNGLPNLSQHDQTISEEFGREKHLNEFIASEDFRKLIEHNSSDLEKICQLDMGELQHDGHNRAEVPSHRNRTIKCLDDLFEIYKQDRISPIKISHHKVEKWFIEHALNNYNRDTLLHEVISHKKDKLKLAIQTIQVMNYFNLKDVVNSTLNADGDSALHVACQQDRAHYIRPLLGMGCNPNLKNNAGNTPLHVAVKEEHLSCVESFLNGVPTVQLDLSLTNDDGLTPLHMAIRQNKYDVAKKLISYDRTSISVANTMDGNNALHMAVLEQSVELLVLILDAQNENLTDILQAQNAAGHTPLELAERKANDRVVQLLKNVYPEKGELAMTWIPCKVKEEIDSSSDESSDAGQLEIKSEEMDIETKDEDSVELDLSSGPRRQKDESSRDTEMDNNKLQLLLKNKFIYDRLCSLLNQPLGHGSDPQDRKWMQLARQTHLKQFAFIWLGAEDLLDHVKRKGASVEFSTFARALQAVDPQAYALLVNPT
The description is as above.

Assay [5] addresses T1, Ank-H4 of Microplitis demolitor …. Described as above. This is another data set of the same source.
Assay [6] deals with Dorsal, truncated (RHD, NLS and 20 additional C-terminal residues), N-terminal thioredoxin fusion (Drosophila melanogaster). In words: SEC; gel filtration of each purified recombinant protein, compared with molecular mass standards.
Assay [7] concerns the target Relish, truncated (RHD, NLS and 20 additional C-terminal residues), StrepTagII-tagged (Drosophila melanogaster). The description is as above.
Assay [8] addresses Relish, truncated (RHD, NLS and 20 additional C-terminal residues), N-terminal thioredoxin fusion (Drosophila melanogaster). The description is as above.

One may read the stoichiometry N as the number of molecules, sites or subunits per partner or assembly. By Kd is commonly meant the concentration at which binding is half-saturated. The koff is a measure of how fast the partners let go of each other. Low readings indicate a long-lived complex, high ones a short-lived complex. Broadly, the kon is the second-order rate constant of association. Low values mean slower complex formation, high ones faster complex formation.

Read-outs that look alike come from different tables or passages of the source.

T1 sequence (Q5I144 whole entry): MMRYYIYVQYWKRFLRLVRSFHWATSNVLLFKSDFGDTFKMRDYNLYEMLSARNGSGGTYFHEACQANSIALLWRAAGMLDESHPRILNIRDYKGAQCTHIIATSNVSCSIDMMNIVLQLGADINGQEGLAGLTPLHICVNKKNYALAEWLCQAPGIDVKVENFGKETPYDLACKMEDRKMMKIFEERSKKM
Sequence of Ank-N5 of Microplitis demolitor bracovirus, full length, N-terminal His tag (Microplitis demolitor bracovirus (MdBV)) (Q5I126 whole entry, the tested form may be a part): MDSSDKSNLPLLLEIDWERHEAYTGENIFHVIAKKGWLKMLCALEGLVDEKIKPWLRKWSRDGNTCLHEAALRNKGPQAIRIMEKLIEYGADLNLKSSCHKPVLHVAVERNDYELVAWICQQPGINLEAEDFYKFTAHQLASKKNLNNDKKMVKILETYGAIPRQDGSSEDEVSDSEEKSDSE

B1: Dorsal, truncated (RHD, NLS and 20 additional C-terminal residues), StrepTagII-tagged (domain or fragment)
chain: PYVKITEQPAGKALRFRYECEGRSAGSIPGVNSTPENKTYPTIEIVGYKGRAVVVVSCVTKDTPYRPHPHNLVGKEGCKKGVCTLEINSETMRAVFSNLGIQCVKKKDIEAALKAREEIRVDPFKTGFSHRFQPSSIDLNSVRLCFQVFMESEQKGRFTSPLPPVVSEPIFDKKAMSDLVICRLCSCSATVFGNTQIILLCEKVAKEDISVRFFEEKNGQSVWEAFGDFQHTDVHKQTAITFKTPRYHTLDITEPAKVFIQLRRPSDGVTSEALPFEYVPMDSDPAHLRRKRQKTGGDPMHLLLQQQQKQQLQN
modifications: not checked
Take B1: in assay [1], the stoichiometry N stood at 2. Besides, the Kd was determined as 858 nM in assay [2], 416 nM in assay [3], 783 nM in assay [4] and 858000 nM in assay [5]. The koff amounted to 0.0067 s⁻¹ in assay [2], 0.003 s⁻¹ in assay [3] and 0.00645 s⁻¹ in assay [4]. In addition, the kon is 7810 M⁻¹ s⁻¹ in assay [2], 7230 M⁻¹ s⁻¹ in assay [3] and 8240 M⁻¹ s⁻¹ in assay [4].

B2: Dorsal, truncated (RHD, NLS and 20 additional C-terminal residues), N-terminal thioredoxin fusion (domain or fragment)
chain: PYVKITEQPAGKALRFRYECEGRSAGSIPGVNSTPENKTYPTIEIVGYKGRAVVVVSCVTKDTPYRPHPHNLVGKEGCKKGVCTLEINSETMRAVFSNLGIQCVKKKDIEAALKAREEIRVDPFKTGFSHRFQPSSIDLNSVRLCFQVFMESEQKGRFTSPLPPVVSEPIFDKKAMSDLVICRLCSCSATVFGNTQIILLCEKVAKEDISVRFFEEKNGQSVWEAFGDFQHTDVHKQTAITFKTPRYHTLDITEPAKVFIQLRRPSDGVTSEALPFEYVPMDSDPAHLRRKRQKTGGDPMHLLLQQQQKQQLQN
modifications: not checked
Take B2: the stoichiometry N in assay [6] stood at 2.

B3: Relish, truncated (RHD, NLS and 20 additional C-terminal residues), StrepTagII-tagged (domain or fragment)
chain: KHVPQLRIVEQPVEKFRFRYKSEMHGTHGSLNGANSKRTPKTFPEVTLCNYDGPAVIRCSLFQTNLDSPHSHQLVVRKDDRDVCDPHDLHVSKERGYVAQFINMGIIHTAKKYIFEELCKKKQDRLVFQMNRRELSHKQLQELHQETEREAKDMNLNQVRLCFEAFKIEDNGAWVPLAPPVYSNAINNRKSAQTGELRIVRLSKPTGGVMGNDELILLVEKVSKKNIKVRFFEEDEDGETVWEAYAKFRESDVHHQYAIVCQTPPYKDKDVDREVNVYIELIRPSDDERSFPALPFRYKPRSVIVSRKRRRTGSSANSSSSGTESSNNSLD
modifications: not checked
Consider B3, for which the stoichiometry N in assay [7] came out at 2. For the same molecule, in assay [2], the Kd came to 345 nM, the koff was found to be 0.0067 s⁻¹ and the kon was found to be 19400 M⁻¹ s⁻¹. Besides, in assay [3], the Kd was found to be 30300 nM, the koff is 0.00179 s⁻¹ and the kon stood at 59 M⁻¹ s⁻¹. In assay [4], this molecule gave a Kd of 2750 nM, a koff of 0.00378 s⁻¹ and a kon of 1380 M⁻¹ s⁻¹.

B4: Relish, truncated (RHD, NLS and 20 additional C-terminal residues), N-terminal thioredoxin fusion (domain or fragment)
chain: KHVPQLRIVEQPVEKFRFRYKSEMHGTHGSLNGANSKRTPKTFPEVTLCNYDGPAVIRCSLFQTNLDSPHSHQLVVRKDDRDVCDPHDLHVSKERGYVAQFINMGIIHTAKKYIFEELCKKKQDRLVFQMNRRELSHKQLQELHQETEREAKDMNLNQVRLCFEAFKIEDNGAWVPLAPPVYSNAINNRKSAQTGELRIVRLSKPTGGVMGNDELILLVEKVSKKNIKVRFFEEDEDGETVWEAYAKFRESDVHHQYAIVCQTPPYKDKDVDREVNVYIELIRPSDDERSFPALPFRYKPRSVIVSRKRRRTGSSANSSSSGTESSNNSLD
modifications: not checked
For the molecule B4, the stoichiometry N in assay [8] came out at 2.

The values above are taken from paper PMC3359993.
